Results taken from the RNAGym collection of RNA variant scans (doi:10.1093/nar/gkz1192).

B1: CPEB3 Ribozyme (parent)
chain: UAACAGGGGGCCACAGCAGAAGCGUUCACGUCGCAGCCCCUGUCAGAUUCUGGUGAAUCUGCGAAUUCUGCUGUAUAUCUC

Variants of: B1
Assay: self-cleavage, relative activity (ratio to wild type); higher = more cleavage; in vitro, sequencing
How it was run: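 After error-prone PCR and barcoding, CPEB3 ribozyme mutant libraries were transcribed with T7 RNA polymerase at 37°C for 5 hours, then given 15 min with DNase I before an EDTA stop, and they cleaved during both steps. Reverse transcription with template switching preceded Illumina sequencing. Relative activity divides a variant's cleaved/total read fraction by the unmutated ribozyme's. At least 5 reads were required per variant, and three batches were averaged.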

Point of comparison: A77U, self-cleavage 1.11. Against it:
- U72A U80G — lower, 0.99
- U72A U80C — higher, 1.29
- U72A U80A — the same, 1.11
- C79G U80C — lower, 0.27
- A75U U76C — higher, 1.29
- U72C U78A — higher, 1.2
- U72C U78G — higher, 1.16
- U72C U78C — higher, 1.15
- U72A U76A — lower, 0.72
- U72A U76G — lower, 0.54
- U72A U76C — lower, 0.97
- G73A A75G — higher, 1.19
- U69G U76C — lower, 0.98
- U69G U76A — lower, 0.94
- U78A U80C — lower, 1.07
- U78A U80G — higher, 1.29
- U78A U80A — higher, 1.23
- U72G C79U — higher, 1.21
- A77G — lower, 1.06
- A77C — lower, 0.98
- G73U U80C — higher, 1.28
- U69C C71G — lower, 0.24
- U69C C71A — lower, 0.2
- U72G U78G — lower, 1
- U72G U78C — lower, 1.01
- U72G U78A — higher, 1.13
- U78C C81G — higher, 1.25
- U78C C81U — higher, 1.15
- U78C C81A — higher, 1.21
- A75G A77G — lower, 0.57
- A75G A77U — lower, 1.05
- G70U U74C — lower, 0.26
- U74C U80C — higher, 1.24
- U74C U80A — higher, 1.28
- U74A — higher, 1.25
- U74C — higher, 1.23
- U74G — higher, 1.24
- U72G U76C — lower, 0.97
- U72G U76A — lower, 0.54
- U69C U72C — lower, 0.37
- U69C U72G — lower, 0.35
- U69C U72A — lower, 0.36
- U72C A77U — higher, 1.21
- U72C A77G — higher, 1.18
- U72C A77C — lower, 1.07
- U69G A75U — lower, 0.78
- U72G A77G — lower, 1
- U72G A77U — lower, 0.71
- U80G C81U — higher, 1.39
- U69G C81A — lower, 0.86
- U72C U80A — higher, 1.24
- U72C U80G — higher, 1.23
- U72C U80C — higher, 1.24
- U72C A75G — higher, 1.14
- U72C A75U — higher, 1.25
- C79A U80C — higher, 1.23
- C71G U72C — lower, 0.44
- U72A A75G — higher, 1.12
- U72A A75U — higher, 1.22
- U72A A75C — lower, 0.78
- U72C C79G — lower, 1.05
- U72C C79A — higher, 1.3
- U72C C79U — higher, 1.16
- C71G A75G — lower, 0.62
- U69G C79U — lower, 0.72
- U72G G73A — higher, 1.3
- C71G A77U — lower, 0.13
- U74G U78C — higher, 1.26
- U74G U78A — higher, 1.26
- G70C A77G — lower, 0.49
- U69C U80G — lower, 0.73
- U69C U80A — lower, 0.79
- U69C U80C — lower, 0.52
- U69G G73A — lower, 0.98
- G73C U80C — higher, 1.29
- C71U U76C — lower, 0.84
- C71A U78G — lower, 0.11
- C71A U78C — lower, 0.49
- U72C U74A — higher, 1.24
- U72C U74G — higher, 1.25
- U72C U74C — higher, 1.22
- A75C U80C — higher, 1.18
- A75U U78A — the same, 1.11
- A75U U78C — higher, 1.15
- U78C C79U — lower, 0.84
- U78C C79G — higher, 1.18
- U78A C79U — higher, 1.29
- U74C U76C — higher, 1.2
- U74C U76A — higher, 1.3
- U72A A77U — lower, 0.89
- U72A A77G — lower, 1.02
- U72A C79U — lower, 0.68
- U76A U78A — lower, 1.09
- U76A U78C — lower, 1.1
- U76A U78G — higher, 1.37
- U76G A77U — lower, 0.75
- U74C A75G — higher, 1.25
- U74C A75U — higher, 1.26
- U76C U80G — higher, 1.24
- U76C U80A — higher, 1.26
- U76C U80C — higher, 1.13
- U78G U80C — lower, 0.94
- C71U U72G — lower, 0.62
- C71U U72C — lower, 1.02
- C79U U80A — higher, 1.24
- U69A U80C — lower, 0.56
- U69A U80G — lower, 0.76
- A75G C81U — higher, 1.18
- A75G C81A — lower, 1.04
- C71U U80A — lower, 0.72
- C71U U80C — higher, 1.23
- U74A U76C — higher, 1.34
- A77G C81A — higher, 1.2
- U74C U78G — higher, 1.17
- U74C U78A — higher, 1.29
- U74C U78C — higher, 1.3
- A77U U80G — higher, 1.26
- A77U U80C — higher, 1.18
- A77U U80A — higher, 1.18
- U69C A77G — lower, 0.67
- U69C A77U — lower, 0.77
- U69C A77C — lower, 0.54
- U69C G73A — lower, 0.99
- U69C G73U — lower, 0.88
- G73A U78C — higher, 1.32
- G70C U78A — lower, 0.17
- A75G — lower, 1.01
- A75C — higher, 1.2
- A75U — higher, 1.15
- U69G — lower, 0.74
- U69C — lower, 0.59
- C71A U72C — lower, 0.41
- C71A U72A — lower, 0.22
- U69G U78C — lower, 0.71
- U69G U78A — lower, 0.45
- U72C — higher, 1.13
- U72A — lower, 0.81
- U72G — lower, 0.98
- U72A U78A — lower, 0.72
- U72A U78C — lower, 0.8
- U72G U80C — higher, 1.19
- A75G U80A — lower, 1.08
- A75G U80G — lower, 1.02
- A75G U80C — lower, 0.65
- U69C U74A — lower, 0.55
- U69C U74C — lower, 0.74
- U69C U74G — lower, 0.88
- U69G U80A — lower, 0.88
- U69G U80C — lower, 0.82
- U69G U80G — lower, 0.61
- U69C U76A — lower, 0.75
- U69C U76C — lower, 0.66
- U69C U76G — lower, 0.79
- C71G U80G — lower, 0.4
- U76A C79A — higher, 1.2
- U69G A77U — lower, 0.27
- U69G A77G — lower, 0.78
